Laboratory results reported in patent US20220072120A1 (University of Washington, published 2022).

Molecular target: I53-dn5 B
Test: in vitro nanoparticle assembly; SEC on Superose 6, SDS-PAGE

B1: I53-dn5 A.2 (A_LF2_W16G_LS) (designed binder)
chain: MGKYDGSKLRIGILHARGNAEIILELVLGALKRLQEFGVKRENIIIETVPGSFELPYGSKLFVEKQKRLGKPLDAIIPIGVLIRGSTAHFDYIADSTTHQLMKLNFELGIPVIFGVLTTESDEQAEERAGTKAGNHGEDWGAAAVEMATKFN
- binding result: binds
